Results: patent publication US20240201167A1 (ALBERT EINSTEIN COLLEGE OF MEDICINE, published 2024)
Positions count from the first letter of the chain named. In names and notes the source's numbering stands.

B1: B7-2 expressed on cells (ligand, human, UniProt P42081 24-329, looked up)
chain: APLKIQAYFNETADLPCQFANSQNQSLSELVVFWQDQENLVLNEVYLGKEKFDSVHSKYMGRTSFDSDSWTLRLHNLQIKDKGLYQCIIHHKKPTGMIRIHQMNSELSVLANFSQPEIVPISNITENVYINLTCSSIHGYPEPKKMSVLLRTKNSTIEYDGVMQKSQDNVTELYDVSISLSVSFPDVTSNMTIFCILETDKTRLLSSPFSIELEDPQPPPDHIPWITAVLPTVIICVMVFCLILWKWKKKKRPRNSYKCGTNTMEREESEQTKKREKIHIPERSDEAQRVFKSSKTSSCDKSDTCF
notes: whole, on cells
B2: human p75NTR P150H on cells (receptor)
chain: KEACPTGLYTHSGECCKACNLGEGVAQPCGANQTVCEPCLDSVTFSDVVSATEPCKPCTECVGLQSMSAPCVEADDAVCRCAYGYYQDETTGRCEACRVCEAGSGLVFSCQDKQNTVCEECHDGTYSDEANHVDPCLPCTVCEDTERQLRECTRWADAECEEIPGRWITRSTPPEGSDSTAPSTQEPEAPPEQDLIASTVAGVVTTVMGSSQPVVTRGTTDNLIPVYCSILAAVVVGLVAYIAFKRWNSCKQNKQGANSRPVNQTPPPEGEKLHSDSGISVDSQSLHDQQPHTQTASGQALKGDGGLYSSLPPAKREEVEKLLNGSAGDTWRHLAGELGYQPEHIDSFTHEACPVRALLASWATQDSATLDALLAALRRIQRADLVESLCSESTATSPV
notes: Fluorescent-tagged point mutant
B3: human p75NTR L165H on cells (receptor)
chain: B2 chain with H122P, L137H
notes: Fluorescent-tagged point mutant; also called LEU165H*
B4: human p75NTR F136K on cells (receptor)
chain: B2 chain with F108K, H122P
notes: as for B2
B5: human p75NTR L165K on cells (receptor)
chain: B2 chain with H122P, L137K
notes: Fluorescent-tagged point mutant; also called LEU165K*
B6: human p75NTR F136H on cells (receptor)
chain: B2 chain with F108H, H122P
notes: as for B2
B7: ICOSL expressed on cells (ligand, human, UniProt O75144 19-302, looked up)
chain: DTQEKEVRAMVGSDVELSCACPEGSRFDLNDVYVYWQTSESKTVVTYHIPQNSSLENVDSRYRNRALMSPAGMLRGDFSLRLFNVTPQDEQKFHCLVLSQSLGFQEVLSVEVTLHVAANFSVPVVSAPHSPSQDELTFTCTSINGYPRPNVYWINKTDNSLLDQALQNDTVFLNMRGLYDVVSVLRIARTPSVNIGCCIENVLLQQNLTVGSQTGNDIGERDKITENPVSTGEKNAATWSILAVLCLLVVVAVAIGWVCRDRCLQHSYAGAWAVSPETELTGHV
notes: whole, on cells
B8: human p75NTR P150K on cells (receptor)
chain: B2 chain with H122K
notes: as for B2
B9: chimeric human-mouse B7-1 protein expressed on HEK 293 cells (ligand)
chain: VIHVTKEVKEVATLSCGHNVSVEELAQTRIYWQKEKKMVLTMMSGDMNIWPEYKNRTIFDITNNLSIVILALRPSDEGTYECVVLKYEKDAFKREHLAEVTLSVKADFSTPNITESGNPSADTKRITCFASGGFPKPRFSWLENGRELPGINTTISQDPESELYTISSQLDFNTTRNHTIKCLIKYGDAHVSEDFTWEKPPEDPPDSKNTLVLFGAGFGAVITVVVIVVIIKCFCKHRSCFRRNEASRETNNSLTFGPEEALAEQTVFL
notes: also called human-mouse chimera B7-1-GFP; h:mB7-1

Columns and labels:
[1] = molecular target: human B7-1 (CD80), full length, expressed on HEK 293 cells (Homo sapiens) (UniProt P33681); test: cell-cell binding, flow cytometry; percent of the wild-type pair
[2] = molecular target: T1, human B7-1 K139D on cells (Homo sapiens, UniProt P33681 35-280); test: as above
T1 construct: mCherry-tagged point mutant; also called LYS139ASP; LYS139 ASP
T1 chain: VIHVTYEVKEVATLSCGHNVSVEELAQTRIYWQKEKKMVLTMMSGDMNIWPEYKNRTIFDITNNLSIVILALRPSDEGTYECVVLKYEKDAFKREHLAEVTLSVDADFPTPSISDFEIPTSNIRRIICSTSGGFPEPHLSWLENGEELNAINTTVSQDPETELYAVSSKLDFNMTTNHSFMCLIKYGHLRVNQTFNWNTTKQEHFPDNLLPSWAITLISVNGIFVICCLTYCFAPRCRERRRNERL

[3] = molecular target: T2, human B7-1 K127D on cells (Homo sapiens, UniProt P33681 35-280); test: as above
T2 construct: mCherry-tagged point mutant; also called LYS127 ASP
T2 chain: T1 chain with K93D, D105K

[4] = molecular target: T3, human B7-1 K120D on cells (Homo sapiens, UniProt P33681 35-280); test: as above
T3 construct: mCherry-tagged point mutant; also called LYS120 ASP
T3 chain: T1 chain with K86D, D105K

human B7-1 N82E on cells = molecular target: T4, human B7-1 N82E on cells (Homo sapiens, UniProt P33681 35-280); test: as above
T4 construct: C-terminally fused to mCherry; also called ASN82 GLU
T4 chain: T1 chain with N48E, D105K

human B7-1 R63D on cells = molecular target: T5, human B7-1 R63D on cells (Homo sapiens, UniProt P33681 35-280); test: as above
T5 construct: mCherry-tagged point mutant; also called ARG63 ASP
T5 chain: T1 chain with R29D, D105K

[5] = molecular target: T6, human p75 neurotrophin receptor, full length, expressed on HEK 293 cells (Homo sapiens, UniProt P08138 29-427); test: cell-cell screen, flow cytometry
T6 construct: Full-length human p75 with a cytosolic fluorescent tag (GFP); also called p75NTR; NGFR
T6 sequence: B2 chain with H122P
Experimental: As illustrated, cells were transfected with expression cassettes expressing labeled receptors or labeled ligands, receptor-expressing cells were mixed with ligand-expressing cells and cell-to-cell binding was monitored by detecting the labels associated with the receptor and the ligand. […] Binding was detected using an anti-mIgG2A ab and flow cytometry. The binding curves were fit and the Bmax, EC50, and hill coefficient were calculated using the equation Y=Bmax*Xh/(Kdh+Xh).

[6] = molecular target: T7, human B7-1 (CD80), full length, expressed on HEK 293 cells (Homo sapiens, UniProt P33681 35-280); test: cell-cell binding, flow cytometry; percent of the wild-type pair
T7 construct: also called hB7-1; B7-1-mCherry
T7 sequence: T1 chain with D105K

mouse CTLA-4-mIgG2a = molecular target: T8, mouse CTLA-4-mIgG2a (mouse, UniProt P09793 36-161); test: Fc fusion on cells expressing chimera B7-1-GFP, flow cytometry
T8 construct: not shown: mIgG2a Fc
T8 sequence (P09793 36-161): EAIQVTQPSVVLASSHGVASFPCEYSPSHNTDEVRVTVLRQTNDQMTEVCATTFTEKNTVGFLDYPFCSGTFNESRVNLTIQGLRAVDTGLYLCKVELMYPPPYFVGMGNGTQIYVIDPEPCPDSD
Experimental: (§1) The arrow identifies the swapped exons. […] Binding was assessed using an anti mIgG2a-647 labeled antibody and flow cytometry.

p75NTR-mIgG2a = molecular target: T9, p75NTR-mIgG2a (human, UniProt P08138 29-250); test: as above
T9 construct: Full-length ectodomain; also called p75-mIgG2A; recombinant p75 mIgG2a; not shown: C-terminal mIgG2a-His10 Fc domain
T9 sequence: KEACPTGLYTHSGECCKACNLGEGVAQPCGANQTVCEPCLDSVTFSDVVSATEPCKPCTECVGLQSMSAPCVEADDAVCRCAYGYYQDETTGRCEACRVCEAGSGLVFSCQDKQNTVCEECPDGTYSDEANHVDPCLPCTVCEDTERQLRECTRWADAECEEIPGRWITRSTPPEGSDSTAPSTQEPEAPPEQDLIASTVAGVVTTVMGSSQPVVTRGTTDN
Experimental: as §1

Row | Molecule | percent binding [1] [%] | percent binding [2] [%] | percent binding [3] [%] | percent binding [4] [%] | percent binding (human B7-1 N82E on cells) [%] | percent binding (human B7-1 R63D on cells) [%] | binding result [5] | percent binding [6] [%] | binding result (mouse CTLA-4-mIgG2a) | binding result (p75NTR-mIgG2a)
1 | human p75NTR mutant printed ARG166H on cells (from UniProt P08138 29-427) (receptor) | 66 | 26 | 26 | 12 | 25 | 8 | – | – | – | –
2 | B1 | – | – | – | – | – | – | no binding | – | – | –
3 | B2 | – | 14 | 11 | 16 | 10 | 13 | – | 38 | – | –
4 | B3 | – | 25 | 25 | 19 | 15 | 26 | – | 64 | – | –
5 | B4 | – | 18 | 23 | 16 | 77 | 29 | – | 81 | – | –
6 | B5 | – | 19 | 19 | 20 | 11 | 18 | – | 83 | – | –
7 | B6 | – | 13 | 16 | 15 | 66 | 25 | – | 90 | – | –
8 | B7 | – | – | – | – | – | – | no binding | – | – | –
9 | B8 | – | 11 | 15 | 17 | 13 | 14 | – | 69 | – | –
10 | B9 | – | – | – | – | – | – | – | – | binds | binds
